Experimental data taken from the DeepSol protein solubility set.

Test: soluble on expression in E. coli; label from the status in PepcDB or PDB records

Sequence: MGSDKIHHHHHHTEYPLPAAQSRLIGENQYYTVPEGKHTLEDIAAKYQLGLSNLLEANPGVDPFLPKPGSQLLIPLQLILPNAPREGIVINVAEMRLYYYPKGKKTVEVLPIGIGQIGKDTPENWVTSVQRKRANPTWTPTPRIRKEYAAKGEILPAVWPAGPDNPMGLYALYIGNLYAIHGTNASFGIGLRVSQGCVRLRHEDIEHLFKNVPVGTRVQFVNQPIKATEEPDGKRYLAVHQPLSRTVAEFESNEPVAISLPRDIAKFIAKADTNSSVIKKLLDERTGVPMRINQ
- soluble on expression in E. coli: not soluble

Sequence: MNIERKQAKQKEISSGHSFLEWGMTILKMPPAKRIKMVRDGVKVTHLVGAGRYYGISQAKLSKLLGISDATITRKIRSSGKLGPLESERLARIALIEAEAEKVFDSSDLAKRWMLESNLALGESPLSLLDTDMGADEVRKVLASIAYGGIA
- soluble on expression in E. coli: not soluble

Sequence: MPEPHAVLYVTNELSHIVKNEFLPIWKLTGDESLNDLWLENGKYATDVYAYGDVSKWTIRQLRGHGFIFISTHKNVQLADIIKTVDVRVPREVARSHDMKAFENEIGRRRIRMRKGFGDALRNYAFKMAIEFHGSEAETLNDANPRLHKIYGMPEIPPLYMEYAEIGTRFDDEPTDEKLVSMLHYIVYSAEEVHYIGCGDLRTLMQFKKRSPGRFRRVLWHVYDPIAPECSDPNVIVHNIMVDSKKDILKHMNFLKRVERPFIWDVSSDRSQMNDHEWETTRFAEDRLGEEIAYEMGGAFSSALIKHRIPNSKDEYHCISTYLFPQPGADADMYELRNFMRLRGYSHVDRHMHPDASVTKVVSRDVRKMVELYHGRDCGSFLKKRLFEHLHIVRKNGLLHESDEPRADLFYLTNRCNMGLEPSIYEVMKKSVIATAWVGRAPLYDYDDFALPRSTVMLNGSYRDIRILDGNGAILFLMWRYPDIVKKDLTYDPAWAMNFAVSLKEPIPDPPVPDISLCRFIGLRVESSVLRVRNPTLHETADELKRMGLDLSGHLYVTLMSGAYVTDLFWWFKMILDWSAQNREQKLRDLKRSAAEVIEWKEQMAERPWHVRNDLIAALREYKRKMGMREGASIDSWLELLRHL
- soluble on expression in E. coli: soluble

Sequence: SLDRGEQGLLKTEPVAEEGEDAVTMLSAPEALTEEEQEELRRELTKVEEEIQTLSQVLAAKEKHLAELKRKLGISSLQEFKQNIAKGWQDVTATNAYKKTSETLSQAGQKASAAFSSVGSVITKKLEDVKNSPTFKSFEEKVENLKSKVGGAKPAGGDFGEVLNSTANATSTMTTEPPPEQMTES
- soluble on expression in E. coli: soluble

Sequence: MSLKPSDFVKYLQRMIALTDTGLTFTKDPFDRERYEDLRSLLSEMLNQVSDLDAEEVAEVLKPTSAYATPLMDVRAWIVEDEKICLVRRQGEDSWALPGGFGEVGYSPTENILKEIEEETGFKAKVERLLAVFDTNRFQLQSKQYAKFVFECKLLDGQFQENQEIAALQFFTIDQLPNLSEKRITKEQIEILWQVYQGQREQYLDEGGSHHHHHH
- soluble on expression in E. coli: soluble

Sequence: MGSDKIHHHHHHMNSLEQLRQAEQALLEIFSGIDAQVKQNLKRVLEAFRNQRVGAHHFAGVSGYGHDDLGRETLDKVFAEVMGAEAAAVRVQFVSGTHAIACALFGVLRPGDEMLAVVGSPYDTLEEVIGLRGQGQGSLIEFGIKYRQLELTSQGSIDWQTLSTSITDNTRLVLIQRSCGYSWRPSLSIADIEKVVNLVKQQNPDTVCFVDNCYGEFIETQEPTHVGADLMAGSLIKNPGGTIVTAGGYVAGRADLVEAAACRLTAPGIGSYGGATFDQNRLLFQGLFLSPQMVGEAMKGTHLTGYVFDKLGYPVNPAPLAPRGDVIQAIKLGSGKKLIAFCKAVQQNSPVGSYLDPVPDDMPGYESQVVMAGGTFIEGSTLEFSADGPLREPYVVYCQGGTHWSHVAIALEAAIDAVGEA
- soluble on expression in E. coli: not soluble

Sequence: MSQDVNELSKQPTPDKAEDNAFFPSPYSLSQYTAPKTDFDGVEHKGAYKDGKWKVLMIAAEERYVLLENGKMFSTGNHPVEMLLPLHHLMEAGFDVDVATLSGYPVKLELWAMPTEDEAVISTYNKLKEKLKQPKKLADVIKNELGPDSDYLSVFIPGGHAAVVGISESEDVQQTLDWALDNDRFIVTLCHGPAALLSAGLNREKSPLEGYSVCVFPDSLDEGANIEIGYLPGRLKWLVADLLTKQGLKVVNDDMTGRTLKDRKLLTGDSPLASNELGKLAVNEMLNAIQNK
- soluble on expression in E. coli: not soluble

Sequence: MSANFTDKNGRQSKGVLLLRTLAMPSDTNANGDIFGGWIMSQMDMGGAILAKEIAHGRVVTVAVESMNFIKPISVGDVVCCYGQCLKVGRSSIKIKVEVWVKKVASEPIGERYCVTDAVFTFVAVDNNGRSRTIPRENNQELEKALALISEQPL
- soluble on expression in E. coli: soluble

Sequence: MGSDKIHHHHHHMSQHRDAAFLTAKSWQDLPASVPFRLCCIERIDETHDVVTFRFEAAGEPVRFSYKPGQFITLLLEIGGEPHSRAYTLSSSPSRPYSISITVKRVEGGKVSNYLIDNLRPGHALDAMGPSGSFNLVDIPADRYLFLSAGCGITPMFSMSRWLTDTRVGADITFVHSARSVDDLIFAPKLESMANNHSGFRLGYVIEQGNCPDWPYAPVLPGRLTLSGLDSLVSDWRERTLYVCGPEAYMAAVEAMVRDAGFAMSRFHKESFGKPGAPVKSSGQGFMLKVGDKLHPLGESGLLLEGIEALKLPIIAACRSGVCGACKCQVLEGDVERLSEMTLTEEDKANGMVLACSARALSNISLKL
- soluble on expression in E. coli: not soluble

Sequence: MGMLGLDLLKEVPGLLEEIKALPLRLDEERFRFWLQQDYPFVEALYRYQVGLLLEAPQAHRAPLVQALMATVEELDWLLLQGASPSAPVHPVRAGYIALLEEMGRLPYAYRVVFFYFLNGLFLEAWAHHVPEEGPWAELSQHWFAPEFQAVLYDLEVLARGLWEDLDPEVVRTYLRRILEAEKATWSLLL
- soluble on expression in E. coli: soluble

Sequence: MDHRRLWRAANRLASDRLGSGEMCCALTSPTSTAQSPSTSFFFGSSLPFLLATIPHTLISAIAEHAILHAWYGGPHVYPDAKLPCPTATFVFKDSPLLRVDDVTSLQWDRAQAANFLVAVLRQPAVQKELRQRLWSAVQNCHRGVLRKLESLAVQKDVEGASKEAAADRLILLDQEPGMPSPPSLSLREVRDDLFSFDELLYFVRVSPSTSSTSRQQRVECESLRSTHLFRFVTSRADVAAALRDRPRSNVSDLLFCVSLRNGDTSAKASSAPVSLSTRDKLWLLLSEMVRLRYLVAYLLNFEVMLHRVRNSTRHSQRGQSTSKEVDSAGFPGNSSSEHADAQDAENAKCIAAVFRFLDIRLHTRLAVSPHHRRFLRHARVRHCERSATPEPPDRATAAHEATDADTSVRHEARRYATVQELFSAFSKALEESTTPPSQLPATVASFTSLAKSPGEGQGAAENGIEAMSKRPDHMRGRSARQNVVQARATSDGPSSLSDTDDEFLKAIVSATRQDQPPDSTVQSTPMRATHRGGVKSPSANPGELPCSRGLPGRRCLTAERSTTCLPQSRRAAEDPHPFVDVVFERKSNRSKWPFQALRARTNASNFKVRFGGSHDASSHAAVICFQLSCTREEREKAEIAPLSGKSAADLLQQYPYVTHVNGISARKVELVVRLFRSAHVLKLRLARRPPDR
- soluble on expression in E. coli: soluble

Sequence: MGSDKIHHHHHHMDCSKASTDTEKMICASSRLQQLDAVLNKAYQGYVKKADKAQARQEQRTWLAERDRCKDDVCLGNEMVSRIQALSGSENISVITQASGQWDFILSVATCNLDSSYSTCEGPGTLDIFKKGSGDLFQRITMENLFIELNNKGEVTANLVEVYGENNSGLVIDDANFDHHADIMLRNGNNGAYGGPSYDVYLFDVEKQQFTQNAPLTELASSNLGLFDIDEKSKTITTFTKSGCCWHQWSAYQMANNKPVLIVETTEAYSEEKQAMVATTRELVSGKWKVKEEIVKIDEQ
- soluble on expression in E. coli: not soluble

Sequence: MKIFSRLGHVLLICSSLIIAIPAHSADSSTTTKAGVKKTVKKQELSANSALVIDLKTNEIIYSNNPDAVKPIASVTKLMTAIVTLDAKLPMDAKLPITIKDAKEMKGVHSRVKIGSEISRKDMLLLTLMSSENRAAASLAHHYPGGYKAFIKAMNAKAKALGMKNTRFVEPTGLSAKNVSTARDLVVLLKASKKYPLLGKLSATDKKTVTFSKPRYTLDFRNTNRLVHNDNWKIDLTKTGFTNAAGHCLVMRTQMGRRQVAFVVLDTKGKLSPVGDANRLRTWIETGKVTPLSSEAKQYKKQRSQEQIAKISDYKS
- soluble on expression in E. coli: not soluble

Sequence: MSMVVDSVPDSSTFVGKTIRPVAAVSIHGIVFDGERLLAVDSKNGYLLEIDPYTNNTKLLNGQYWQEFIGATGLAIADRQLWFSSGQYVYTCNLEGPDLKPEVFAWFDDPVNGVAIWESTVYITCHKRGHIWVYGRDTRKLVATFYSPGIGVENITVRGEELWVCDSAEQSVYCLDRATGEINFSLITPFESPTGLAFYDDQAVGKATLYVAYVQQEPYVRDNPNADPNHELMYRETTFIHPLYFYNDPHQCCAFSNGYLVEMRYVEELAPLDPVDLKQVEWRMALPAVTPRQRIRKIESVGLPFSRIDDVNGQKVAVFEFDQLDLDSRAVFGWRVEMEVWGIKYRLKPSDCEHLPALPEGFADRYLVDNDNLSMETDIIIRAAAEAIGRETNLLRQMFNIRNYVYDRLSYGIKPHIDTPDLALRRGVGSCGEYVGVLLALARLNGIACRTAGRYKCPPHPLQRNLPMEPDFNHVWFEFYLPGIGWLPMESNPDDTNDGGPYPTRFFMGLAWYHAETAKDVPFEQLLSQGIPVNKQVVSIGELAINHVQFTILEELDPAAHLAHLEHHHHHH
- soluble on expression in E. coli: soluble

Sequence: MAIEIPNMIQIGSTGRNSGKTTLAEALIKQYQEVYPIYGLKIITISGQRGVCQRGTKGCGICTSITAGYELVEEQETIGNKDTMKLLAAGCQKVFLLKVFQENLAEAIQQFLKAVPAQALIICESNSLRNVVQPGLFLMMNNQNRQKESAKKVIDKADFCLLSAEIPKKLRIYYQGEQLQVSLKRGNKKECVH
- soluble on expression in E. coli: not soluble

Sequence: MGLSATIMEAEPEGRKRPGSRAIYFHKATLIHLESIFPGLGYTLAKNGLVWPIKRTFFRGKEVFVKDYGPTDPNQLPPFTSLPQDRAEQFMFDACLQAGVEFVWKTPIRQVETSPAGATLTTKAGDVWSADYVIGADGARSSVRTTAGMKLEGPRTNDTFLVVDVKEDEESPLPLERVFHYEHPAMGGRNVMFVPFVGGWRVDLQLLEHDDPEEYSHPEGVRRWIQKVMPAKYGERVTWVSTYRFHQVVADSFTDQHGKVLLAGEAAHLFAPFGARGLNSGTPDAIKAAQGIHTALSARDDQAAKQAIFAAAHERRIAALWNRDCSSTALEHLQGLEHHHHHH
- soluble on expression in E. coli: not soluble

Sequence: MSRPPSRPRMMCARVLLLLSVTGLVLACETGPSSGDYEQAVMQDRVQRDMQMREKESVLPPGRREAFRGLNFYEVDPAYRYTVPLRRFETPDTVMIPESTGDLRPQQRIGEVTVPLPEGPEELVVFRGEGDTPRGRLWIPFADSTNRHATYKGGRYVDLTSTDSDSVVVDFNRAYNPTCAYNPDFACPLPPPENRIAVPVAAGEKRPTFGGLEHHHHHH
- soluble on expression in E. coli: not soluble

Sequence: MGSDKIHHHHHHMSSWEQRSHYLIEVAQRSLIGHKTFDLCRSHLVAASQISKGTIYNHFTTEADLVVAVACAEYEEWLAAAKRDMQRYPDPLTRFLYHHCYRLHQMLSQQRYVIERVMPNQALLLQATDSYRQRFEKISTEYNHWNRLTISEIGDIPGFNRAELVKDYLRGAMINSDDANRQADDVQLYCQFSYALSQLMGHSDKRIPTKPAFVHWLSHLPSTSAISAV
- soluble on expression in E. coli: not soluble

Sequence: MTHIAFGHYLHSKRWYTVQVLSKSEDAMSTQLDPTQLAIEFLRRDQSNLSPAQYLKRLKQLELEFADLLTLSSAELKEEIYFAWRLGVH
- soluble on expression in E. coli: not soluble

Sequence: MKKLAFAVTVASGAAAVIANHEADASTQHTVKSGESLWSISQQYGVSVDEIKQSNDINNNMVFPGQVIEIGGSSSQESGSTSNNTSNGSSHTVQSGESLNIIANQYGVSVDEIIAANNLNGYLIHPNQTLTIPGTTGTGGSGGTATETPSSNTGGSTASDANLYDWGQCTWHVFNRRAETGQPISTYWWNADHWANNASADGYTVNNAPTAGSIMQNYEGPVGHVAYVERVNPDGSILISEMNYNTPPGTVDYRTIPASQASSYNYIHLEHHHHHH
- soluble on expression in E. coli: not soluble
